Measured values taken from patent US20200384083A1 (SINGAPORE HEALTH SERVICES PTE, published 2020).

How the values were obtained:
[1] = biological target: T1, human IL11RA (analyte in the Biacore assay) (human, UniProt Q14626 23-370, limits assumed); assay: SPR (Biacore T200): X209 captured on an anti-mouse capture chip, human IL11RA injected as analyte at 1.56 nM to 100 nM, 1:1 Langmuir fit
T1 construct: also called IL-11Rα
T1 sequence: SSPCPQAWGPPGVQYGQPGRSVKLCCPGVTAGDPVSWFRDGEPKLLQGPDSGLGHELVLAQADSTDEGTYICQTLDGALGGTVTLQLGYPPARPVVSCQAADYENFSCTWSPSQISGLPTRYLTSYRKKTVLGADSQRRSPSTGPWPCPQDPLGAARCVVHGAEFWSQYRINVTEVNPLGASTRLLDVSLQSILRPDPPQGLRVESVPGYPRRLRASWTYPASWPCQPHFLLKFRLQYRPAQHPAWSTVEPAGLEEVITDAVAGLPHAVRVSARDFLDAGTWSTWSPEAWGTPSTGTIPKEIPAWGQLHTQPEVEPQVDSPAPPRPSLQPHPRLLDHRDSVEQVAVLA
Protocol: (§1) Binding of X209 to human IL11RA was measured on Biacore T200 (GE Healthcare). X209 was immobilized onto an anti-mouse capture chip. Interaction assays were performed with HEPES-buffered saline pH 7.4 containing 0.005% P20 and 0.5% BSA. A concentration range (1.56 nM to 100 nM) of the analyte (human IL11 RA) was injected over X209 and reference surfaces at a flow rate of 40 μl min⁻¹. Binding to mouse 1111ra1 was confirmed on Octet system (ForteBio) using a similar strategy. All sensograms were aligned and double-referenced⁴. Affinity and kinetic constants were determined by fitting the corrected sensorgrams with 1:1 Langmuir model. The equilibrium binding constant KD was determined by the ratio of kd/kₐ.

[2] = biological target: T2, mouse IL-11Rα (Il11ra1) (mouse, UniProt Q64385 24-372, limits assumed); assay: BLI, Octet (ForteBio)
T2 construct: also called mouse Il11ra1
T2 sequence (looked up): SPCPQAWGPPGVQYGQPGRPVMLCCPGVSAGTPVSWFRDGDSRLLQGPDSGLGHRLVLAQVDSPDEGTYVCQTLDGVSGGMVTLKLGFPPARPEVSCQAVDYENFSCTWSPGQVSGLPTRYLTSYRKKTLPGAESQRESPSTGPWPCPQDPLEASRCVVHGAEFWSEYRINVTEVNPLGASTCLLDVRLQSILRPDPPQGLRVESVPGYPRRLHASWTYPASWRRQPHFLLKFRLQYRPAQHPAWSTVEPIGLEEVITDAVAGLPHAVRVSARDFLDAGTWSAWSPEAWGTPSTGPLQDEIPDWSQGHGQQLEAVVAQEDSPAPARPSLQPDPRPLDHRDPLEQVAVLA

[3] = biological target: T1, human IL11RA (analyte in the Biacore …); assay: SPR, Biacore T200; X209 captured on an anti-mouse chip, human IL11RA as analyte (1.56 nM to 100 nM), 1:1 Langmuir fit
Protocol: as §1

Kd [1]: 6.01 nM
koff [1]: 0.000757 s⁻¹
kon [1]: 126000 M⁻¹ s⁻¹
binding result [2]: binds
Kd [3]: 6 nM
B1: mouse anti-mouse IL-11Rα IgG X209 (antibody, V domains shown)
VH: QVQLQQPGAELVRPGSSVKLSCKASGYTFTNYWMHWLKQRPVQGLEWIGNIGPSDSKTHYNQKFKDKATLTVDKSSSTAYMQLNSLTSEDSAVYYCARGDYVLFTYWGQGTLVTVSA
VL: DIVLTQSPATLSLSPGERATLSCRASQSISNNLHWYQQKSHEAPRLLIKYASQSISGIPARFSGSGSGTDFTLSFSSLETEDFAVYFCQQSYSWPLTFGQGTKLEIK
notes: also called Enx209; neutralizing anti-IL11RA
